This is an account of results in US20200024358A1 (published 2020).

Changes are numbered by the printed parent chain.

T1: recombinant Human BCMA Fc Chimera (produced in-house via transient expression in HEK293-6E cells) (human, UniProt Q02223 1-54)
T1 construct: not shown: Fc part of the chimera
T1 sequence (looked up): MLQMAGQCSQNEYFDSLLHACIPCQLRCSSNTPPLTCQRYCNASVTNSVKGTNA

B1: CDR1-049 (other)
heavy: EVQLVESGGGSVQPGGSLRLSCTVSGIDLSSYTMGWVRQAPGKGLEWVGIISSGGRTYYASWAKGRFTISRDTSKNTVYLQMNSLRAEDTATYYCARGRYTGYPYYFALWGQGTTVTVSSASTKGPSVFPLAPSSKSTSGGTAALGCLVKDYFPEPVTVSWNSGALTSGVHTFPAVLQSSGLYSLSSVVTVPSSSLGTQTYICNVNHKPSNTKVDKRVEPKSCGGGGSAVVTQEPSLTVSPGGTVTLTCGSSTGAVTTSNYANWVQQKPGKSPRGLIGGTNKRAPGVPARFSGSLLGGKAALTISGAQPEDEADYYCALWYSNHWVFGGGTKLTVLGGGGGSGGGGSGGGGSGGGGSEVQLVESGGGSVQPGGSLRLSCAASGFTFSTYAMNWVRQAPGKGLEWVGRIRSKANNYATYYADSVKGRFTISRDDSKNTLYLQMNSLRAEDTATYYCVRHGNFGDSYVSWFAYWGQGTTVTVSS
light: EIVMTQSPSTLSASVGDRVIITCQASEDIYSLLAWYQQKPGKAPKLLIYDASDLASGVPSRFSGSGSGAEFTLTISSLQPDDSATYYCQGNYGSSSSSSYGAVFGQGTKLTVLGTVAAPSVFIFPPSDEQLKSGTASVVCLLNNFYPREAKVQWKVDNALQSGNSQESVTEQDSKDSTYSLSSTLTLSKADYEKHKVYACEVTHQGLSSPVTKSFNRGECGGGGSDIVLTQSPASLAMSLGKRATISCRASESVSVIGAHLIHWYQQKPGQPPKLLIYLASNLETGVPARFSGSGSGTDFTLTIDPVEEDDVAIYSCLQSRIFPRTFGGGTKLEIKGGGGSGGGGSGGGGSGGGGSQIQLVQSGPELKKPGETVKISCKASGYTFTDYSINWVKRAPGKGLKWMGWINTETREPAYAYDFRGRFAFSLETSASTAYLQINNLKYEDTATYFCALDYSYAMDYWGQGTSVTVSS
notes: Trispecific Fab-scFv: anti-PD-L1 Fab, anti-CD3 scFv on the Fd, anti-BCMA scFv on the light chain
B2: CDR1-047 (other)
heavy: QIQLVQSGPELKKPGETVKISCKASGYTFTDYSINWVKRAPGKGLKWMGWINTETREPAYAYDFRGRFAFSLETSASTAYLQINNLKYEDTATYFCALDYSYAMDYWGQGTSVTVSSASTKGPSVFPLAPSSKSTSGGTAALGCLVKDYFPEPVTVSWNSGALTSGVHTFPAVLQSSGLYSLSSVVTVPSSSLGTQTYICNVNHKPSNTKVDKRVEPKSCGGGGSAVVTQEPSLTVSPGGTVTLTCGSSTGAVTTSNYANWVQQKPGKSPRGLIGGTNKRAPGVPARFSGSLLGGKAALTISGAQPEDEADYYCALWYSNHWVFGGGTKLTVLGGGGGSGGGGSGGGGSGGGGSEVQLVESGGGSVQPGGSLRLSCAASGFTFSTYAMNWVRQAPGKGLEWVGRIRSKANNYATYYADSVKGRFTISRDDSKNTLYLQMNSLRAEDTATYYCVRHGNFGDSYVSWFAYWGQGTTVTVSS
light: DIVLTQSPASLAMSLGKRATISCRASESVSVIGAHLIHWYQQKPGQPPKLLIYLASNLETGVPARFSGSGSGTDFTLTIDPVEEDDVAIYSCLQSRIFPRTFGGGTKLEIKRTVAAPSVFIFPPSDEQLKSGTASVVCLLNNFYPREAKVQWKVDNALQSGNSQESVTEQDSKDSTYSLSSTLTLSKADYEKHKVYACEVTHQGLSSPVTKSFNRGECGGGGSEIVMTQSPSTLSASVGDRVIITCQASEDIYSLLAWYQQKPGKAPKLLIYDASDLASGVPSRFSGSGSGAEFTLTISSLQPDDSATYYCQGNYGSSSSSSYGAVFGQGTKLTVLGGGGGSGGGGSGGGGSGGGGSEVQLVESGGGSVQPGGSLRLSCTVSGIDLSSYTMGWVRQAPGKGLEWVGIISSGGRTYYASWAKGRFTISRDTSKNTVYLQMNSLRAEDTATYYCARGRYTGYPYYFALWGQGTTVTVSS
notes: Trispecific Fab-scFv: anti-BCMA Fab, anti-CD3 scFv on the Fd, anti-PD-L1 scFv on the light chain
B3: CDR1-048 (other)
heavy: EVQLVESGGGSVQPGGSLRLSCAASGFTFSTYAMNWVRQAPGKGLEWVGRIRSKANNYATYYADSVKGRFTISRDDSKNTLYLQMNSLRAEDTATYYCVRHGNFGDSYVSWFAYWGQGTTVTVSSASTKGPSVFPLAPSSKSTSGGTAALGCLVKDYFPEPVTVSWNSGALTSGVHTFPAVLQSSGLYSLSSVVTVPSSSLGTQTYICNVNHKPSNTKVDKRVEPKSCGGGGSDIVLTQSPASLAMSLGKRATISCRASESVSVIGAHLIHWYQQKPGQPPKLLIYLASNLETGVPARFSGSGSGTDFTLTIDPVEEDDVAIYSCLQSRIFPRTFGGGTKLEIKGGGGSGGGGSGGGGSGGGGSQIQLVQSGPELKKPGETVKISCKASGYTFTDYSINWVKRAPGKGLKWMGWINTETREPAYAYDFRGRFAFSLETSASTAYLQINNLKYEDTATYFCALDYSYAMDYWGQGTSVTVSS
light: AVVTQEPSLTVSPGGTVTLTCGSSTGAVTTSNYANWVQQKPGKSPRGLIGGTNKRAPGVPARFSGSLLGGKAALTISGAQPEDEADYYCALWYSNHWVFGGGTKLTVLGTVAAPSVFIFPPSDEQLKSGTASVVCLLNNFYPREAKVQWKVDNALQSGNSQESVTEQDSKDSTYSLSSTLTLSKADYEKHKVYACEVTHQGLSSPVTKSFNRGECGGGGSEIVMTQSPSTLSASVGDRVIITCQASEDIYSLLAWYQQKPGKAPKLLIYDASDLASGVPSRFSGSGSGAEFTLTISSLQPDDSATYYCQGNYGSSSSSSYGAVFGQGTKLTVLGGGGGSGGGGSGGGGSGGGGSEVQLVESGGGSVQPGGSLRLSCTVSGIDLSSYTMGWVRQAPGKGLEWVGIISSGGRTYYASWAKGRFTISRDTSKNTVYLQMNSLRAEDTATYYCARGRYTGYPYYFALWGQGTTVTVSS
notes: Trispecific Fab-scFv: anti-CD3 Fab, anti-BCMA scFv on the Fd, anti-PD-L1 scFv on the light chain
B4: CDR1-055 (other)
heavy: QIQLVQSGPELKKPGETVKISCKASGYTFTDYSINWVKRAPGKGLKWMGWINTETREPAYAYDFRGRFAFSLETSASTAYLQINNLKYEDTATYFCALDYSYAMDYWGQGTSVTVSSASTKGPSVFPLAPSSKSTSGGTAALGCLVKDYFPEPVTVSWNSGALTSGVHTFPAVLQSSGLYSLSSVVTVPSSSLGTQTYICNVNHKPSNTKVDKRVEPKSCGGGGSQVQLVESGGGLVQPGGSLRLSCAASGKMSSRRCMAWFRQAPGKGLERVAKLLTTSGSTYLADSVKGRFTISRDNSKNTVYLQMNSLRAEDTAVYYCAADSFEDPTCTLVTSSGAFQYWGQGTLVTVSS
light: DIVLTQSPASLAMSLGKRATISCRASESVSVIGAHLIHWYQQKPGQPPKLLIYLASNLETGVPARFSGSGSGTDFTLTIDPVEEDDVAIYSCLQSRIFPRTFGGGTKLEIKRTVAAPSVFIFPPSDEQLKSGTASVVCLLNNFYPREAKVQWKVDNALQSGNSQESVTEQDSKDSTYSLSSTLTLSKADYEKHKVYACEVTHQGLSSPVTKSFNRGECGGGGSAVVTQEPSLTVSPGGTVTLTCGSSTGAVTTSNYANWVQQKPGKSPRGLIGGTNKRAPGVPARFSGSLLGGKAALTISGAQPEDEADYYCALWYSNHWVFGGGTKLTVLGGGGGSGGGGSGGGGSGGGGSEVQLVESGGGSVQPGGSLRLSCAASGFTFSTYAMNWVRQAPGKGLEWVGRIRSKANNYATYYADSVKGRFTISRDDSKNTLYLQMNSLRAEDTATYYCVRHGNFGDSYVSWFAYWGQGTTVTVSS
notes: Trispecific: anti-BCMA Fab, anti-PD-L1 sdAb on the Fd, anti-CD3 scFv on the light chain
B5: CDR1-010 (other)
heavy: QIQLVQSGPELKKPGETVKISCKASGYTFTDYSINWVKRAPGKGLKWMGWINTETREPAYAYDFRGRFAFSLETSASTAYLQINNLKYEDTATYFCALDYSYAMDYWGQGTSVTVSSASTKGPSVFPLAPSSKSTSGGTAALGCLVKDYFPEPVTVSWNSGALTSGVHTFPAVLQSSGLYSLSSVVTVPSSSLGTQTYICNVNHKPSNTKVDKRVEPKSCGGGGSEIVMTQSPSTLSASVGDRVIITCQASEAIYSLLAWYQQKPGKAPKLLIYDASDLASGVPSRFSGSGSGAEFTLTISSLQPDDSATYYCQGNYGSSSSSSYGAVFGQGTKLTVLGGGGGSGGGGSGGGGSGGGGSEVQLVESGGGSVQPGGSLRLSCTVSGIDLSSYTMGWVRQAPGKGLEWVGIISSGGRTYYASWAKGRFTISRDTSKNTVYLQMNSLRAEDTATYYCARGRYTGYPYYFALWGQGTTVTVSS
light: B4 light
B6: CDR1-018 (other)
heavy: B5 heavy with A253D, Y459A
light: B4 light
B7: CDR1-015 (other)
heavy: B5 heavy with A253D, G413A
light: B4 light
B8: CDR1-016 (other)
heavy: B5 heavy with A253D, R415A
light: B4 light
B9: CDR1-013 (other)
heavy: B5 heavy with A253D, N316A
light: B4 light
B10: CDR1-012 (other)
heavy: B5 heavy with A253D, D275A
light: B4 light
B11: CDR1-014 (other)
heavy: B5 heavy with A253D, T392A
light: B4 light

T3 sequence (Q9NZQ7 19-238): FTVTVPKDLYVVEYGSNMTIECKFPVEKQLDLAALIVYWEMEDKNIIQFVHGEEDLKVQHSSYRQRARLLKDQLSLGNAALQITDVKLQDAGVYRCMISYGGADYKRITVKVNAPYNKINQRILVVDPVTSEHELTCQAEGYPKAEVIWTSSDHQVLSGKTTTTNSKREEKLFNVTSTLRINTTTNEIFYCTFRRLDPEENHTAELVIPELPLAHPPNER

In one assay the target is T2, recombinant human PD-L1 His-tag protein (expressed after transient transfection in HEK293-6E) (human, UniProt Q9NZQ7 19-238, limits assumed).
T2 construct: not shown: His-tag
T2 sequence (Q9NZQ7 19-238 limits assumed): as the sequence (Q9NZQ7 19-238) above
The experiment in a line: dual-binding ELISA: BCMA Fc coated, then PD-L1 His, anti-His detection. Background: In an ELISA, binding on a coated surface is turned into a signal by an enzyme label.
With B1, the binding result is recorded as “binds”.
Same read-out and setting: the same measure for B2: “binds”; for B3: “binds”; for B4: “binds”.

The next assay deals with T1, recombinant Human BCMA Fc Chimera …. The experiment in a line: dual-binding ELISA: BCMA Fc coated, then CD3 epsilon His or PD-L1 His, anti-His detection.
Procedure: Trispecific antibody molecules were tested for their ability to bind the different targets using a Dual-Binding ELISA. […] Simultaneous binding to antigen pairs was detected via an anti-His antibody (Abcam, Cat. No. ab1187).
Take B1: the binding result is on record as “binds”.
On the same count and under the same terms, the same measure for B2: “binds”; for B3: “binds”; for B4: “binds”.

The next assay has as its target T3, extracellular domain of human PD-L1 (Example 8) (human, UniProt Q9NZQ7 19-238).
T3 construct: extracellular domain; also called PD-L1 antigen; immobilized PD-L1
The experiment in a line: ELISA on coated extracellular domain of human PD-L1, serial dilutions.
Procedure: Serial dilutions of the antibodies to final concentrations ranging from 0.5 ng/mL to 50 μg/ml were tested by ELISA for binding to the extracellular domain of human PD-L1 coated on a 96 well plate.
Take B5: the binding result is listed as “binds”.
Same read-out and setting: the same measure for B6: “binds”; for B7: “binds”; for B8: “binds”.
The same measure, in the same setting: as for B9, the entry is “binds”; as for B10, “binds”.
On to B11, for which the binding result is on record as “binds”.

In a further assay the target is T4, recombinant human CD3 epsilon His-tag protein (Novoprotein, Cat. No. C578) (human, UniProt P07766 23-126).
T4 construct: Bought protein; not shown: His-tag
T4 sequence (P07766 23-126): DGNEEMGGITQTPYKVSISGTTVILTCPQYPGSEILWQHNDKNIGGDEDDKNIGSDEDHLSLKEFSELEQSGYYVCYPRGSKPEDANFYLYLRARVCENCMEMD
The experiment in a line: dual-binding ELISA: BCMA Fc coated, then CD3 epsilon His, anti-His detection.
For the molecule B1, the binding result is “binds”.
Same read-out and setting: the same measure for B2: “binds”; for B3: “binds”; for B4: “binds”.
